# In paper doi:10.1101/2025.10.04.680452 (bioRxiv, 2025):
# Several values for one entry are separate records, joined by “and”; a condition that tells them apart may be missing. Equal entries are not always repeated.
# B1: human mitochondrial group I chaperonin mHsp60, wild type (natural protein)
# chain: GSAKDVKFGADARALMLQGVDLLADAVAVTMGPKGRTVIIEQSWGSPKVTKDGVTVAKSIDLKDKYKNIGAKLVQDVANNTNEEAGDGTTTATVLARSIAKEGFEKISKGANPVEIRRGVMLAVDAVIAELKKQSKPVTTPEEIAQVATISANGDKEIGNIISDAMKKVGRKGVITVKDGKTLNDELEIIEGMKFDRGYISPYFINTSKGQKCEFQDAYVLLSEKKISSIQSIVPALEIANAHRKPLVIIAEDVDGEALSTLVLNRLKVGLQVVAVKAPGFGDNRKNQLKDMAIATGGAVFGEEGLTLNLEDVQPHDLGKVGEVIVTKDDAMLLKGKGDKAQIEKRIQEIIEQLDVTTSEYEKEKLNERLAKLSDGVAVLKVGGTSDVEVNEKKDRVTDALNATRAAVEEGIVLGGGCALLRCIPALDSLTPANEDQKIGIEIIKRTLKIPAMTIAKNAGVEGSLIVEKIMQSSSEVGYDAMAGDFVNMVEKGIIDPTKVVRTALLDAAGVASLLTTAEVVVTEIPKEEKDPGMGAMGGMGGGMGGGMF
# Molecular target: the molecule itself
# Test: cryo-EM structure
protein,measurement,value
B1,stoichiometry N,7 and 14
